Measured values reported in the supplement of paper PMC12455559.

Assay: purified protein yield per well (BCA); higher = higher soluble expression
Method in brief: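 Each candidate enzyme was grown in E. coli C41(DE3) in a 2 mL autoinduction culture (100 µg/mL kanamycin; 2 h at 37 °C, then 40 h at 18 °C) and purified robotically via Ni-charged magnetic beads with SUMO protease cleavage. Purified protein yield per well was assessed using the Pierce Rapid Gold BCA kit. Readings below 25 ug (0.1 mg/mL) are beneath the detection threshold.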

Sequence | purified protein yield per well
HAPAPQPVVVHHHAPFAVRTTVVPKTAVKAFGGGVIYTPQDTGKPVLGAVVITPGFTNTNADEKELGQLVASQGFVAFVIDTLDTGDLPAQRATEILAATDYLTGQSAVRSEVSAKDVGLIGYSFGGGGTMQAAQSRPSIKAAIGLMPFDVPPASDPHALYATYPKLTTPTLVITGQKDEVARPKDFGKPAYDSIPAGTPKQYLELKGLDHSAGEHAPVAAIRNAVTAFLKRYLDGNSAYAKFICPAPKVGGPISVSLSSCPKG [ESM155] | < 25 µg
HAPVHQPAVAHHHAPFAVRTTAVPKTAVTTFGGGVIYTPQDTGKAVLGAVVITPGFTDTNADEKEMAELVASQGFVAFAIDTLDTSDLPAQRSTEILAAADYLTGQSAVKSQVSAKDVGLIGYSFGGGGTMEAAQARPSIKAAIGLMPFDFPDANDPNAQYATYPKLTTPTLVITGEKDDVATPKDYGKPAYDSIPAGTPKQYLELKGLGHGAGEHVPVPTIRNAVTAFLKRYLDGNSAYAKFICPAPKVGGPISVSLSSCPKG [TEP026] | < 25 µg
HGFNGGYIYYPTDTSQTFGAVAIVPAYTALFADEEAWMGPRLASFGFVVIGIETNSREDWDRARGAQLLAGLDYLTQHSAVRTRIDARRLAVIGHSMGGGGAFAAAARRPSLRAVVGLTPYFPSGDLATIRVPTLIIGGQNDTTVTPSYLERLYASLPTRTPSAYVMLADADHLFPTKPNPDQMRVLVPWLKIFVDKDVRYTRFLCPLADRSGISQYQVTCPLVPTV [TEP043] | < 25 µg
IENGPAPTFSSVQADGPFAVSTQTVRGSGFGGGTVYSPNTAGKYAVVAVCPGFTATQTSIALISRRLATHGFVVVTINTNTVYDYPASRANQLLAALRTVTALTTGPVAGKMDTSRQAVSGWSMGGGGAMLAAGMTPGLKAGVAFAPWSLTNNVGSSAVPMAYLAGTADTVAPASVHSSVFYNATPATTKKLIGVIQGADHYFPGTASQPASYTQVAWMKRFLDGDTRYSQFLNGDTRFATFRSTGPF [ESM109] | < 25 µg
IENGPAPTLADLQKDGPYAVTSQVVKGSGFGGGTVYSPNTAGKYALVAVCPGFVSPQSSMTDMSKRLATHGFVVVAITTNTLFDFPSSRATQLLAALKTVAALNTGAAAGKIDITRQVVSGWSMGGGGTLEAAGVTPGLTAAVAFAPWDTATTKMKTLTVPVAIFGGTNDTIAPVSGHSQKFYDIIPATTKKMLAVITGADHFFPTKASEPTSYSNISWVKRFADGDTRYSQFLNGQDAALASFTSTGPF [ESM138] | < 25 µg
IRETRVSSSVRGFGGGTIYYPTGTSGTMGAIVVIPGFVSPESSIAWWGPKLASHGFVVMTIATNRTTDQPSSRATQINAALDYLISQNSTSGSPVRNMIDTDRLGVMGWSMGGGGTLRVASQNRLKAAIPLAPYDTISFRNVDAPTLIFGCESDTVAPVRNHASPFYNQIPAGTDKAFVELNGGSHTCANGGNQYLSLIHI [ESM057] | < 25 µg
ITPPPDDDGNNGGGDTCQQDCGFERGPNPTVASLESRSGPFSVRTSSVSSRVSGFGGGTIHYPTGQTGTMGAIVVIPGFVSAESSIAWWGTQLAAHGFVVMTIDTNSGTDQPPSRARQINAALDYLVSQNTASGSPVRGMIDPSRLGVAGWSMGGGGTLRVATEGRIKAAMPLAPWDTGSTQFRSVKAQTLIFACESDAIAPVNSHASPFYNALPNNINKAFVEISRGSHYCANGGNSNNSLLSRLGVSWMKLHLDQDQRYNQFICGPRHESDRSISEYRGNCSN [ESM115] | < 25 µg
IYTMVDTLSLHDALPISQYRKIPDSKYHLFIKRFYKGFLNLSLWEVRYMSNRLFRARRTVFSVLILFAFMISFVAAIPGVSYASPPIVRYDYAPGKYSGNGPYSYSTYQLPGWSHGATVYYPTNASAPFSGIVFCPPYTGTQIMFRDWGPFFASHGIVLVTMDTSSILISVDERAVEQRTVLNLLKAENSRSGSPLYQKLDTDRVGAMGWSMGGGATWINSAEYPGLKTAMSLAGHNLTAININSKGFGTQCPTIIFCGALDTTYLGGMLQSETVYYNIPSGVPKVYYEVGTAGHFVWGGPTDANDHVAELALAFQKTFLDGDDRWEGFIEKPRFDYLSTFRSRN [TEP185] | < 25 µg
LKADGPYAVSSQTVKGNGFGAGTVYSPNTPGKYAVVAVCPGFVSAESSMTAISKRLATHGFVVVTIATNTLFDFPSSRATQLLAALKTVTALTTGPVAGKMDTSRQGVSGWSMGGGGTLEAAGATPGLVSAVAYAPWDTSTTKMKVNKVPVAIIGGSADTVASVSAHSQKFYDAIPATTPKMLPVINGADHFFPTKASEPASYHNI [ESM072] | < 25 µg
LQMQSLINIGPLQISEINESMGLRNGTDYNGATIYYPINQNNLSSIVLVPGFMNTELTIQNWGPFFASHGIITMTIGTNSLTDTHVQRRDALFDAIISLKQENQRIASPLFGKLDTSSIAVGGFSKGGGGAQLLAKFDPSLKAVVALYPWLENVTASDLEHTVPLIIISGQLDAIAPPFLHADIQYNLTPMTTKKLKYEVAFASHDAISGPYAGNGEVGARVLSWLNTFLVTDSCYCPLLLEQPITSSSYTTNIVCSNLFTNIYESNKSYSKEIIEIRDLYGRKVKFSNSRILIYIYNDGSYEKKITL [TEP016] | < 25 µg
LTLDDLKKDGPYAISAQTIPASGFGKGTVYSPNTPGKYALVAVCPGFVSAESSITEISKRLATHGFVVVTIGTKTLLDFPSSRASQLLAALKAASAVTTGPAAGKIDVTRQVVAGWSMGGGGTLEAAAATPGLKAAVAYAPWNLSSSKYKSITVPSAIIGGTADSVAPVSSHSQPFYNAIPATTPKLLGVIQGADHFFPNKAAEPASYTNIAWVKRFADGDTQYGVFLRGQDAAWASFVSTGPF [ESM117] | < 25 µg
LTLDDLKKDGPYAVSSQTIPGSGFGKGTIYSPNAAGKYALVAVVPGFVSAESSMTEISKRLATHGFVVVTIGTKTLLDFPSSRASQLLAALKAASAVTTGPVAGKIDVTRQVVSGWSMGGGGTLEAAASTPGLKAAVAYAPWNLSSTKYKAITVPSAIIGGTADTVASVSAHSQPFYNAIPATTRKLLGVIQGADHFFPNKAVDPASYTNIAWVKRFADGNTAYAPFLAGQDAAWASFVSTGPF [ESM087] | < 25 µg
LWLGLGGVLSLIGFVVIGVETNSRTDYDVARGTQLLAALDYLTQQSPVRNRVDPNRLGVIGHSMGGGGVVYATEHRPALKAAVALAPFSPSQNMSTDTVPTMVMAGQNDTVVTPSYLSGLYATMPAATQSDFLQIAGADHVYYTHPNSVEMRILIPWIKTFLDNDTRYTQVICPGLAL [TEP112] | < 25 µg
MAAGGLVAAQAAGAQAAPAQAAAANPYERGPAPTEASIEAARGSYAVSQTTVSSLSVSGFGGGTVYYPTSTSDGTFGAVVISPGYTAYQSSIAWLGPRLASQGFVVFTIDTLTTLDQPDSRGRQLLAALDYLTQSSSVRTRIDSSRLGVMGHSMGGGGTLEAAKSRPSLQAAIPLTGWNLDKTWPEIKTPTLIVGADGDTIAPVATHSEPFYESLPSSLDKAYLELNGATHFTPNSSNTTIAKYSISWLKRFIDNDTRYEQFLCPLPRPSLTIDEYRGNCPHTS [TEP052] | < 25 µg
MASITNPGPYSVSLLIEGVDDIRNGPDYDGATIYYPSNGVPPYAGIAIIPGYCGVETDIENWGPFYASHGIIAITLGTNNPCADWPAVRALALLDAIETIKSENTREGSPLNGKVDVNSFAVSGWSMGGGGAELAASIDPSLKAVVGLCPWLDLNGFETSDLIHDVPVLIFTGQNDDIAGSAEYGYMHYTNTPNSTDKLYFEIENEGHEAANAPNMAGGEKGIYALSWLTI [TEP051] | < 25 µg
MASVAAQYGPFATAQITVPPGNGFNGGFIYYPTDTSHTYGAVAIVPGYTALFANEEAWMGPRLASFGFVVIGVETNNRNDYDTARGTQLLAALDYLTNSSAVRDRVDRNRLSVIGHSMGGGGALYAATQRPSLKAAIGLAPFKPSGNLASDNVPTMIIGGINDTTVTPSYLDGLYPTLPASTPGAYIQLANADHLYFTRPNDIELRSQIEWLKIFVDNDTRYTQFLCPSIKDTTGIVRSSVKCSTIPSGGSTPPSSPSVPPSSPPSGPQRILGSQSGRCVDVPNATHDNGTRVQLYDCNGQANQQWTYTSSKQLTVYGNVCLDAAGSGNGSAVQIYSCNGQPNQQWNVNANGTITGVQSGRCLDVWGTGNGQQFQLWDCNGQANQRFGLS [ESM074] | < 25 µg
MCHISAPVPPRAPGCPQFAHWLEVRAVLGSNGAFPTSGRTGADPSGARGTGGRWRRGVAALSTAAVLGALTVVGAVQSASGADNPYQRGPDPTASYVSGSRGSFATAQVSVPAGNGFGGGVIYHPTDTTQGTFGAIAVVPGYTATWAAEGAWMGHWLASFGFVVIGIDTNGREDWDTARGTQLLAALDYLTQRSSVRDRVDASRTAVMGHSMGGGGAMYAALQRPSLKTTVGLAPFSPSQNLTNLRVPAMLLSGQNDTTTTPSSIVNLYNGIPAATEKAYLELSGVGHSFPTSSNPTMMRNVIPWLKIFIDSDTRYTQFLCPLSNSNGIRSYQNTCPLVPSSVPTTSSTTTSTSTTTTTTTTTTTTTTTSVPVGACSASFRTTNTWPGGYQGEVTVTAGSSAVNGWTVQWTLDSGQSISQVWNGTLSVSGSAVSVRNVSYNGSLPPNASATFGFIGGGSPSTSPFTCTSP [ESM077] | < 25 µg
MEAIVRRGGTRGQVTGILVAVLAMVVALAGAVLAARPALAQPRDTAPGNPYQRGPDPTVAMIEASAGPFATASTSVPAGHGFNGGTVYYPTDTSLGTWGALAIVPGYSALFANEEAWMGPWLASFGFVVIGVETTTRTDSADARGTELLAALNYLTTQSPVRDRVDPNRLSVLGHSAGGAGAMLAAERQPTLKAAVGLAPGSPVGNLSLAADTVPTMVIGGQNDAVVTPSYLSGLYATMPASTQSDFAQVAGADHVYYTHPNNVEMKLLIPWLKTFLDNDTRYTPFLCPAPPDPSSISLYTPKCPYVPGGSAPGGGNTGALHAVGAAKCLAAPSTGAPGAQVTIGTCGGQAGQIWTHTAAAQLTVTLGGATLCLDASGQGSSPGTKVIVWSCNGQVNQQWNLNADGTVTGAQSGLCLDVTGASTADGAPVELWSCNGGGNQQWHLG [TEP068] | < 25 µg
MFSASTFAYNPAPPPPSPTPTPTPGPLPGQPNDGFQRGPNPSVSLLEAERGPFSVRNARVSSSVRGFGGGTIYYPTGTTGTMGAIVVIPGYVSPESSIAWWGPKMASHGFVVMTIATNRTTDQPSSRATQINAALDYLISQNSTSGSPVRNMIDTDRLGVMGWSMGGGGTLRVASQNRLKAAIPLAPYDTISFRNVDAPTLIFGCESDTVAPVRNHASPFYNQIPAGTDKAFVELNGGSHTCANGGNQYNDVLSRLGVSWMKRHLDNDTRYSQFLCGPNHTSDRDISEYRGNCPY [DP070] | < 25 µg
MGFGGGTIYYPTTSGQYGAIAVCPGFTGTSSSISWFARRLATHGFVTIAMNTTTTLDYPSSRATQLAAALRYLLNSSSSTIRSRIRTADRGVAGHSMGGGGTLIASANDSTLRAGIPMTPWNTYTSFSSVRVPQMIFGADGDTIAPYATHARPFYNSISLAEKAYALLNGAGHFTPNSTDQRIRRYGVAFAKRFVDGDTRYNPFLCGAEHTAYATSSRFQTYLSNCPY [ESM185] | < 25 µg
